Patent publication US20210155689A1 (SHANGHAI PHARMAEXPLORER, published 2021)

T1: monkey LAG-3 on cells (HEK293-cLAG-3 stable cell line) (monkey, UniProt P18627 24-525 (human entry))
T1 construct: Full-length monkey (Chinese monkey) LAG-3 gene expressed on HEK293 cells
T1 chain: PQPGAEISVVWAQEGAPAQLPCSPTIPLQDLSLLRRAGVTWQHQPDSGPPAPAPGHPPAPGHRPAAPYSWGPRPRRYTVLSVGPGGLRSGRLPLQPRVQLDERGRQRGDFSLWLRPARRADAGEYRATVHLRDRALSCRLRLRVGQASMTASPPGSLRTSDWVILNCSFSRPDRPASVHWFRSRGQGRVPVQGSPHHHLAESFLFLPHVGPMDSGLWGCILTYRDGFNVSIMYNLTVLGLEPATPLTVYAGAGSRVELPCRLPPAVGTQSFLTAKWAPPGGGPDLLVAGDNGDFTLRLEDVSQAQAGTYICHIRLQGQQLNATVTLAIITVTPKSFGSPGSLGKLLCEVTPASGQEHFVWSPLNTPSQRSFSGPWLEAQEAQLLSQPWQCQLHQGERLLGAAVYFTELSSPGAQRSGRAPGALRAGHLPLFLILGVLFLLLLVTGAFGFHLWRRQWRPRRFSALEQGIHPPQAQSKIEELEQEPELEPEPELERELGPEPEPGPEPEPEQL

T2: human LAG-3 protein with hFc tag (hLAG-3-hFc protein) (human, UniProt P18627 23-450)
T2 construct: also called immunogen 1; LAG-3 extracellular domain protein; not shown: human IgG Fc fragment (hFc) of the pCpC vector
T2 sequence: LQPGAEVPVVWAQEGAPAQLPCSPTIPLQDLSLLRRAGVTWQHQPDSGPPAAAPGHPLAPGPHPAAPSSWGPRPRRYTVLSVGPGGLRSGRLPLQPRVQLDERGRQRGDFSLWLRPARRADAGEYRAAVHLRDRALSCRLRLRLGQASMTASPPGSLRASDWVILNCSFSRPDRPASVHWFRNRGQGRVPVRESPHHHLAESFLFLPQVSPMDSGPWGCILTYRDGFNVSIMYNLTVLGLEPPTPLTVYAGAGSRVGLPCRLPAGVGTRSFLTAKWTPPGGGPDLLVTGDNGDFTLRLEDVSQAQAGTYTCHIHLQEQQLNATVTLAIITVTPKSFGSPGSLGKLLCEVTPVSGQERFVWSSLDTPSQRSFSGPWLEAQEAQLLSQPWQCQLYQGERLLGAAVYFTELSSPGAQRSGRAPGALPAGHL

T3: human LAG-3 (full length, on the cell surface) (human, UniProt P18627 23-525)
T3 construct: Full-length human LAG-3 expressed on cells; also called HEK293-hLAG-3; HEK293 cells transfected with LAG-3 gene
T3 sequence: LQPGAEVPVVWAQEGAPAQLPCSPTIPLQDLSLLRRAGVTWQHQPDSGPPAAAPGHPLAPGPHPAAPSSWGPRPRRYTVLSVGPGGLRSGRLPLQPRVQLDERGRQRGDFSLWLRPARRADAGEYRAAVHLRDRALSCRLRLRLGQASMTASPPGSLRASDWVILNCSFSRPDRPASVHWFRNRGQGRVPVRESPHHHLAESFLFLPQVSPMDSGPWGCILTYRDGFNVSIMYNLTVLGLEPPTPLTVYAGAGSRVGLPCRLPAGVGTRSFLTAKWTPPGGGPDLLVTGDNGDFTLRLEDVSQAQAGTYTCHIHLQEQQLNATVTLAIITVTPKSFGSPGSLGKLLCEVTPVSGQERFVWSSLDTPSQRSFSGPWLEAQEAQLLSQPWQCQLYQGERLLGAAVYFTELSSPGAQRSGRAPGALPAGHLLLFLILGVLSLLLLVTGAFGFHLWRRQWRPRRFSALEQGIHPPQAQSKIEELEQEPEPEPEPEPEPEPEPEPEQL


Experiments:
[1] = biological target: T1, monkey LAG-3 on cells (HEK293-cLAG-3 …); test: FACS, HEK293-cLAG-3, antibody 0.000 nM
From the text: (§1) The pIRES plasmid with the monkey-derived full-length gene was transfected into the HEK293 cell line to construct a HEK293 stable cell line containing monkey LAG-3 (herein referred to as HEK293-cLAG-3 stable cell line). The HEK293-hLAG-3 stable cell line and HEK293-cLAG-3 stable cell line were expanded in a T-75 cell culture flask to a 90% confluence. The medium was aspirated, and the cells were washed with HBSS (Hanks' Balanced Salt Solution) 1-2 times, then treated with a enzyme-free cell dissociation fluid (Versene solution: Life technology) and the cells were collected. The cells were washed with HBSS buffer for 1-2 times. After counted, the cells were diluted with HBSS to 1-2×10⁶ cells per ml, added with 1% goat serum blocking solution, incubated on ice for 20-30 minutes, and then washed with HBSS for 2 times by centrifugation. The collected cells were suspended in the FACS buffer (HBSS+1% BSA) to 2×10⁶ cells/ml, added as 100 microliters per well to a 96-well FACS reaction plate, added with 100 microliters per well of the antibody sample to be tested, incubated on ice for 1-2 hours. The plate was washed twice with the FACS buffer by centrifugation, added with 100 microliters of fluorescent (Alexa 488)-labeled secondary antibodies per well, and incubated on ice for 0.5-1.0 hours. The plate was washed 2-3 times with FACS buffer by centrifugation, added with 100 μl fixative solution (4% Paraformaldehyde) per well to suspend the cells. 5-10 minutes later, it was washed 1-2 times with FACS buffer by centrifugation. The cells were suspended with 100 microliters of FACS buffer, FACS (FACSCalibur, BD) was used for detection and the results were analyzed.

[2] = biological target: T2, human LAG-3 protein with hFc tag …; test: ELISA, hLAG-3-hFc coated; 66.6670 nM
Protocol: The plate was sealed with plastic film and incubated overnight at 4° C. The plate was washed 2 times with the plate washing solution (PBS+0.01% Tween20) on the next day, and added with the blocking solution (PBS+0.01% Tween20+1% BSA) and blocked at room temperature for 1-2 hours. The blocking solution was poured out, and the plate was added with 50-100 μl of the antibody sample to be tested to each well, incubated at 37° C. for 1-2 hours, and washed 2-3 times with a plate washing solution (PBS+0.01% Tween20). HRP (horseradish peroxidase) labeled secondary antibody was added, and the plate was incubated at 37° C. for 1-2 hours, and washed 2-3 times with a plate washing solution (PBS+0.01% Tween20). 100 μl of TMB substrate was added to each well. After incubated at room temperature for 15-30 minutes, the plate was added with 100 μl of stop solution (1.0N HCl) to each well.

[3] = biological target: T3, human LAG-3 (full length, on the cell …); test: FACS, HEK293-hLAG-3; 8.000 nM
From the text: as §1

[4] = biological target: T3, human LAG-3 (full length, on the cell …); test: FACS, HEK293-hLAG-3; 0.064 nM
From the text: as §1

Binder	Mean fluorescence intensity [1]	OD450 [2]	Mean fluorescence intensity [3]	Mean fluorescence intensity [4]
556F6B8 mouse-human chimeric antibody (antibody, V domains shown, also called mAb123-556F6B8; 556F8B8) VH: RVQLKQSGPGLVQPSQSLSITCTVSGFSLIKYGVHWVRQSPGEGLEWLGVIWRGGITDYNAAFMSRLSITKDNSKSQVFFKMNSLQADDTAIYYCAKWDGPLAMDYWGQGTSVTVSS VL: DIVMTQSHKFLSTSVGDRVSITCKASQDVGTTVAWYQQKPGQSPKLLIYWASTRHTGVPDRFTGSGSGTDFTLTISNVQSEDLADYFCQQYSSYPYTFGGGTKLEIK	3.1			
556F6B8 (LAG-3 mouse-human chimeric antibody) (antibody, V domains shown, also called 556F8B8) VH: RVQLKQSGPGLVQPSQSLSITCTVSGFSLIKYGVHWVRQSPGEGLEWLGVIWRGGITDYNAAFMSRLSITKDNSKSQVFFKMNSLQADDTAIYYCAKWDGPLAMDYWGQGTSVTVSS VL: DIVMTQSHKFLSTSVGDRVSITCKASQDVGTTVAWYQQKPGQSPKLLIYWASTRHTGVPDRFTGSGSGTDFTLTISNVQSEDLADYFCQQYSSYPYTFGGGTKLEIK		3.69 OD450		
556F6B8 (mouse antibody purified from hybridoma) (antibody, V domains shown, also called mAb123-556F6B8) VH: RVQLKQSGPGLVQPSQSLSITCTVSGFSLIKYGVHWVRQSPGEGLEWLGVIWRGGITDYNAAFMSRLSITKDNSKSQVFFKMNSLQADDTAIYYCAKWDGPLAMDYWGQGTSVTVSS VL: DIVMTQSHKFLSTSVGDRVSITCKASQDVGTTVAWYQQKPGQSPKLLIYWASTRHTGVPDRFTGSGSGTDFTLTISNVQSEDLADYFCQQYSSYPYTFGGGTKLEIK			74.9 MFI	6.8 MFI
405B8H3 (mouse antibody purified from hybridoma) (antibody, V domains shown, also called mAb103-405B8H3; 405B81-13) VH: QVQLQQSGAELVRPGASVTLSCKASGYTFTDYEMHWVKQTPVHGLEWIGATDPETGNSAYNQKFKGKAIMTADKSSSTAYMELRSLTSEDSAVYYCISTGWNDWGQGTSLTVSS VL: DIKMTQSPSSMYASLGERVTITCKASQDINSYLSWFQQKPGKSPKTLIYRADRLLDGVPSRFSGSGSGQDYSLTISSLEYGDMGIYYCLQYDEFPYTFGGGTKLEIK			252 MFI	8.7 MFI
405B8H3 (LAG-3 mouse-human chimeric antibody) (antibody, V domains shown, also called mouse-human chimeric antibody 405B8H3) VH: QVQLQQSGAELVRPGASVTLSCKASGYTFTDYEMHWVKQTPVHGLEWIGATDPETGNSAYNQKFKGKAIMTADKSSSTAYMELRSLTSEDSAVYYCISTGWNDWGQGTSLTVSS VL: DIKMTQSPSSMYASLGERVTITCKASQDINSYLSWFQQKPGKSPKTLIYRADRLLDGVPSRFSGSGSGQDYSLTISSLEYGDMGIYYCLQYDEFPYTFGGGTKLEIK		3.57 OD450		
105F1E10 mouse-human chimeric antibody (antibody, V domains shown, also called mAb009-105F1E10) VH: EVQLQQSGPELVKPGASVKMSCRASGYTFTDFKMHWMKQSHGKSLEWIGYIAPNNGGTAYNQKFRGKATLTVNESSNTAYMELRSLTSEDSAVYYCVDWDDVDYWGQGTTLTVSS VL: DIKMTQSPSSMYASLGERVTITCKASQDINSYLSWFQQKSGKSPKTLIYRANRLVDGVPSRFSGSGSGQDYSLTISSLEYEDMGIYYCLQYVEFPLTFGAGTKLELK	2.72			
105F1E10 (mouse antibody purified from hybridoma) (antibody, V domains shown, also called mAb009-105F1E10) VH: EVQLQQSGPELVKPGASVKMSCRASGYTFTDFKMHWMKQSHGKSLEWIGYIAPNNGGTAYNQKFRGKATLTVNESSNTAYMELRSLTSEDSAVYYCVDWDDVDYWGQGTTLTVSS VL: DIKMTQSPSSMYASLGERVTITCKASQDINSYLSWFQQKSGKSPKTLIYRANRLVDGVPSRFSGSGSGQDYSLTISSLEYEDMGIYYCLQYVEFPLTFGAGTKLELK			235 MFI	8.6 MFI
105F1E10 (LAG-3 mouse-human chimeric antibody) (antibody, V domains shown) VH: EVQLQQSGPELVKPGASVKMSCRASGYTFTDFKMHWMKQSHGKSLEWIGYIAPNNGGTAYNQKFRGKATLTVNESSNTAYMELRSLTSEDSAVYYCVDWDDVDYWGQGTTLTVSS VL: DIKMTQSPSSMYASLGERVTITCKASQDINSYLSWFQQKSGKSPKTLIYRANRLVDGVPSRFSGSGSGQDYSLTISSLEYEDMGIYYCLQYVEFPLTFGAGTKLELK		3.6 OD450		
409B11E12 (mouse antibody purified from hybridoma) (antibody, V domains shown, also called mAb104-409B11E12) VH: QVQLQQSGAELVRPGASVTLSCKASGYTFTDYEMHWVKQTTVHGLEWIGATDPETSYSAYNQKFKGKAILTADKSSSTAYMELRSLTSEDSAVYYCIATGWNDWGQGTSLTVSS VL: DLKMTQSPSSMYASLGERVTITCKASQDINSYLSWFQQKPGKSPKTLIYRANRLLDGVPSRFSGSGSGQDYSLTISSLEYEDMGIYYCLQYDEFPYTFGGGTKLEIK			112 MFI	5 MFI
409B11E12 (LAG-3 mouse-human chimeric antibody) (antibody, V domains shown) VH: QVQLQQSGAELVRPGASVTLSCKASGYTFTDYEMHWVKQTTVHGLEWIGATDPETSYSAYNQKFKGKAILTADKSSSTAYMELRSLTSEDSAVYYCIATGWNDWGQGTSLTVSS VL: DLKMTQSPSSMYASLGERVTITCKASQDINSYLSWFQQKPGKSPKTLIYRANRLLDGVPSRFSGSGSGQDYSLTISSLEYEDMGIYYCLQYDEFPYTFGGGTKLEIK		3.59 OD450		
409D4E10 (mouse antibody purified from hybridoma) (antibody, V domains shown, also called mAb112-409D4E10) VH: QVQLQQSGAELVRPGASVTLSCKASGNTFTDYEMHWVKQTPVHGLEWIGATDPETDNTAYNQKFKGKAILTTDKSSSTAYMELRSLTSEDSAVYYCITSGWNDWGQGTSLTVSS VL: DIKMTQSPSSMYASLGERVTITCKASQDINSYLSWFQQKPGKSPKTLIYRANRLLDGVPSRFSGSGSGQDYSLTISSLEYEDMGIYYCLQYNEFPYTFGGGTKLEIK			123 MFI	4.9 MFI
409D4E10 (LAG-3 mouse-human chimeric antibody) (antibody, V domains shown) VH: QVQLQQSGAELVRPGASVTLSCKASGNTFTDYEMHWVKQTPVHGLEWIGATDPETDNTAYNQKFKGKAILTTDKSSSTAYMELRSLTSEDSAVYYCITSGWNDWGQGTSLTVSS VL: DIKMTQSPSSMYASLGERVTITCKASQDINSYLSWFQQKPGKSPKTLIYRANRLLDGVPSRFSGSGSGQDYSLTISSLEYEDMGIYYCLQYNEFPYTFGGGTKLEIK		3.73 OD450		
